Source: paper PMC6396125 (ACS Omega, 2019)
“And” between values parts separate entries of the source, which are not always exact repeats. Equal entries are not always repeated. Where two headings read alike, the source gives them in different places. Ends that are not written are not given here.

Assays:
L. lactis OppA = molecular target: T1, L. lactis OppA (Lactococcus lactis subsp. lactis, UniProt Q07741); assay: Fluorescence anisotropy competition binding assay
T1 sequence (Q07741 35-600 limits assumed): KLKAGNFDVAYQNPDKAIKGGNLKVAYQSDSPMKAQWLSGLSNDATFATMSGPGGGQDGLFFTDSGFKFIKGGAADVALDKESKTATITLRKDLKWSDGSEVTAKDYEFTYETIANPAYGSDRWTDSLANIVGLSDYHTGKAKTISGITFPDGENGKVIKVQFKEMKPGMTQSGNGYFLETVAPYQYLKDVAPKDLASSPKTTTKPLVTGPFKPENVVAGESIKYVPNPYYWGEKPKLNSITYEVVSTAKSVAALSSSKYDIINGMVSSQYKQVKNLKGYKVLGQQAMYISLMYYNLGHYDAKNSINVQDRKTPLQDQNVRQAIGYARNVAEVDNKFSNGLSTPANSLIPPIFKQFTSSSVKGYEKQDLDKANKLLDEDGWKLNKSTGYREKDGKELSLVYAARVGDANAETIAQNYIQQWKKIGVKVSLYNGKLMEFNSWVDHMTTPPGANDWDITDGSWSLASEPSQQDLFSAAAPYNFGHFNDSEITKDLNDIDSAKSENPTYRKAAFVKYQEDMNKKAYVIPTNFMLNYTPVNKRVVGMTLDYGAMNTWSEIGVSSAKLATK

[1] = molecular target: bradykinin labeled with sulforhodamine 101 on the C-terminus; assay: fluorescence polarisation
[2] = molecular target: Lactococcus lactis oligopeptide-binding protein A (OppA) (Lactococcus lactis subspecies cremoris MG1363); assay: fluorescence polarisation
[3] = molecular target: Lactococcus lactis oligopeptide-binding protein A (OppA) (Lactococcus lactis subspecies cremoris MG1363); assay: fluorescence polarisation; remark: listed apart in the source
[4] = molecular target: Lactococcus lactis oligopeptide-binding protein A (OppA) (Lactococcus lactis subspecies cremoris MG1363); assay: fluorescence polarisation; remark: listed apart in the source
[5] = molecular target: Lactococcus lactis oligopeptide-binding protein A (OppA) (Lactococcus lactis subspecies cremoris MG1363); assay: fluorescence polarisation; remark: listed apart in the source

IC50 [5] [µM]	Kd [5] [µM]	Compound	Kd (L. lactis OppA) [µM]	other results
		CC[C@H](C)[C@H](NC(=O)[C@H](CCCNC(=N)N)NC(=O)[C@H](CCCNC(=N)N)NC(=O)[C@H](CC(C)C)NC(=O)[C@H](Cc1ccccc1)NC(=O)CNC(=O)CNC(=O)[C@@H](N)Cc1ccc(O)cc1)C(=O)N[C@@H](CCCNC(=N)N)C(=O)N1CCC[C@H]1C(=O)N[C@@H](CCCCN)C(=O)N[C@@H](CC(C)C)C(=O)N[C@@H](CCCCN)C(=O)N[C@@H](Cc1c[nH]c2ccccc12)C(=O)N[C@@H](CC(=O)O)C(=O)N[C@@H](CC(N)=O)C(=O)N[C@@H](CCC(N)=O)C(=O)O [dynorphin-A (1–17)]	3.3 ± 0.6	
		Lactococcus lactis oligopeptide-binding protein A (OppA) (natural protein)		Kd [1]: 22.9 µM and 15.4 µM
		SFRNGVGSGVKKTSFRRAKQ [neuropeptide S]		IC50 from competition binding assay (L. lactis OppA; pH 6, 30 °C, vs prebound bradykinin-SR101 (1 μM) + OppA (15 μM) mixture, at least 1 h, mean ± SD, n = 3): no fit
		SLSQSKVLPVPQ [casein-derived peptide]	0.2 ± 0.01	
		YGGFLRRIR [dynorphin-A (1–9)]	13.3 ± 0.7	
5.2	0.13	bradykinin (peptide)		Kd [2]: 0.2 µM and 0.36 µM and 0.7 µM; IC50 [3]: 5.1 µM and 5.3 µM and 5.6 µM; Kd [3]: < 0.1 µM and 0.31 µM; Kd [4]: 0.4 µM
34.2	13.3	dynorphin-A (1–9) (peptide)		
11	3.3	dynorphin-A (1–17) (peptide)		
	1800	neuropeptide S		

Compound	IC50 [5] [µM]	Kd [5] [µM]	Kd (L. lactis OppA) [µM]	other results
leu-enkephalin (peptide)	2000			
